Results published in patent US6706762.
“And” between values parts separate entries of the source, which are not always exact repeats. Identical values can stand only once.

Biological target: GAL-C-SMRT (yeast) (UniProt P04386)
Assay: cell-based or functional assay

| Substance | UAS reporter expression, mammalian two-hybrid | fold lower sensitivity to ATRA than the SMRT/RARα interaction, mammalian two-hybrid |
| --- | --- | --- |
| VP16-PLZF (from UniProt Q05516 1-673) | 25 fold | – |
| VP-PML-RARα (from UniProt P29590 1-552; P10276 61-462) | – | 100 fold and 200 fold |
